Results reported in publication PMC3469841.

Key:
[1] = target: P79S stefin B variant (human) (UniProt P04080); assay: SEC; KW-803 column (Shodex), HPLC with UV detection; 50 mM sodium phosphate, 100 mM NaCl, pH 7, 1 mM NaN3
[2] = target: P79S stefin B variant (human) (UniProt P04080); assay: SEC; KW-803 column (Shodex), HPLC with UV detection; 15 mM sodium acetate, 150 mM NaCl, 1 mM NaN3, pH lowered to 4.7; tetramer to dimers and monomers
[3] = target: Stefin B construct (C3S, with glutamate polymorph at position 31) (human) (UniProt P04080); assay: NMR (2D 1H15N HSQC amide peak intensities); apparent ratio of monomer to dimer from peaks of Q71, L73 and E76; fibrillization conditions, pH 4.7 and 10% TFE, 15 mM sodium acetate, 25°C; dimer to monomers
[4] = target: Stefin B construct (C3S, with glutamate polymorph at position 31) (human) (UniProt P04080); assay: NMR (2D 1H15N HSQC amide peak intensities); apparent ratio of monomer to dimer from peaks of Q71, L73 and E76; pH 6.0, 0% TFE; 200 uM 15N protein (monomer equivalents), 100 mM NaCl, 25°C; dimer to monomers; the paper says the two species never reach equilibrium

| Substance | stoichiometry N [1] | stoichiometry N [2] | ratio of monomer to dimer (monomer:dimer) [3] | ratio of monomer to dimer (monomer:dimer) [4] |
| --- | --- | --- | --- | --- |
| P79S stefin B variant (from UniProt P04080 1-98) (natural protein) | 4 | 2 | – | – |
| Stefin B construct (C3S, with glutamate polymorph at position 31) (from UniProt P04080 4-98) (natural protein) | – | – | 2 | 1 |
